Experimental data reported in publication PMC9352346.

B1: Arl15-AL-Myc [human] / GST-Smad4 [not stated] (parent)
chain 1: MSDLRITEAFLYMDYLCFRALCCKGPPPARPEYDLVCIGLTGSGKTSLLSKLCSESPDNVVSTTGFSIKAVPFQNAILNVKELGGLDNIRKYWSRYYQGSQGVIFVLDSASSEDDLEAARNELHSALQHPQLCTLPFLILANHQDKPAARSVQEIKKYFELEPLARGKRWILQPCSLDDMDALKDSFSQLINLLEEKDHEAVRM
chain 2: MDNMSITNTPTSNDACLSIVHSLMCHRQGGESETFAKRAIESLVKKLKEKKDELDSLITAITTNGAHPSKCVTIQRTLDGRLQVAGRKGFPHVIYARLWRWPDLHKNELKHVKYCQYAFDLKCDSVCVNPYHYERVVSPGIDLSGLTLQSNAPSSMMVKDEYVHDFEGQPSLSTEGHSIQTIQHPPSNRASTETYSTPALLAPSESNATSTANFPNIPVASTSQPASILGGSHSEGLLQIASGPQPGQQQNGFTGQPATYHHNSTTTWTGSRTAPYTPNLPHHQNGHLQHHPPMPPHPGHYWPVHNELAFQPPISNHPAPEYWCSIAYFEMDVQVGETFKVPSSCPIVTVDGYVDPSGGDRFCLGQLSNVHRTEAIERARLHIGKGVQLECKGEGDVWVRCLSDHAVFVQSYYLDREAGRAPGDAVHKIYPSAYIKVFDLRQCHRQMQQQAATAQAAAAAQAAAVAGNIPGPGSVGGIAPAISLSAAAGIGVDDLRRLCILRMSFVKGWGPDYPRQSIKETPCWIEIHLHRALQLLDEVLHTMPIADPQPLD

Variants of: B1
Experiment: GST pull-down, immunoblot band quantification
Details: with GST-Smad4; HeLa cell lysates; bead-immobilized GST-Smad4; parent: 100

| Variant | percent of parent |
| --- | --- |
| chain 1 E82K | 95 |
| chain 1 R90L | 22 |
| chain 1 R95C | 38 |
| chain 1 Y96F | 47 |
